Measured values: paper PMC10388305, “Synthesis and Evaluation of a Monomethyl Auristatin E—Integrin αvβ6 Binding Peptide–Drug Conjugate for Tumor Targeted Drug Delivery” (Journal of Medicinal Chemistry, 2023)
Where two headings read alike, the source gives them in different places.

Key:
[1] = Serum stability in mouse serum; assay type: in vitro ADME; conditions: 37 °C, ethanol precipitation, radio RP-HPLC
Procedure: The serum stability of [^64Cu]PDC-1 was measured in both human and mouse serum at 37 °C at 1, 4, and 24 h.
Mouse serum or human serum (0.5 mL) was combined with an aliquot of [^64Cu]PDC-1 (≤25 μL, 3.9–4.7 MBq) and incubated at 37 °C. At each time point (1, 4, and 24 h), an aliquot (50–200 μL) was taken, proteins precipitated with absolute ethanol and removed by centrifugation at 1500g for 4 min. The ethanol solution was diluted with water (1 mL) and analyzed by RP-HPLC.

[2] = Biodistribution, paired DX3puroβ6/DX3puro xenograft tumor mouse model; assay type: in vivo, mice; conditions: female, athymic nude, iv, total radioactivity, γ-counter, mean ± SD; for tissue uptake at 4 h / tissue uptake at 24 h / tissue uptake at 48 h: i.v.
Procedure: The biodistribution of [^64Cu]PDC-1 confirmed the αvβ6-selective tumor accumulation, with 4.46 ± 0.91% ID/g in the DX3puroβ6 (+) tumor at 4 h vs 0.56 ± 0.12% ID/g in the DX3puro (−) tumor (ratio = 8:1; Figure 6A, Table S3). […] For the BxPC-3 tumor, the uptake went from 4.61 ± 1.44% ID/g at 4 h to 3.73 ± 0.44 and 2.93 ± 0.80% ID/g, at 24 and 48 h, respectively (4 to 48 h: P = 0.054; Figure 6). […] Clearance from the blood was rapid, resulting in αvβ6 (+) tumor/blood ratios of ≥32:1 at 4 h (Table S5). [^64Cu]PDC-1 primarily cleared through the kidneys, from 50 to 64% ID/g at 4 h to ≤25% ID/g at 48 h (Figure 6). […] Accumulation in the liver remained steady between 1.5 and 2.2% ID/g at 4 to 48 h, and uptake in other organs such as muscle (≤0.9% ID/g) and pancreas (≤0.5% ID/g) was low at all time points (Figure 6).
All animal procedures conformed to the Animal Welfare Act and were approved by the University of California Davis Institutional Animal Care and Use Committee. All mice used for in vivo work were female athymic nude mice (6–8 weeks old) purchased from Charles River Laboratories (Wilmington, MA). For PET imaging and biodistribution studies, female athymic nude mice (6–8 weeks old) were injected subcutaneously with 3 × 10^6 DX3puro and 3 × 10^6 DX3puroβ6 cells in serum free DMEM on the right and left flank, respectively, or with 5 × 10^6 BxPC-3 cells in serum free RPMI 1640/Matrigel (1/1 v/v). Studies commenced once tumors reached a maximum diameter of ∼0.5 cm, approximately 3 weeks after inoculation. Food and water were available ad libitum. [^64Cu]PDC-1 was formulated in isotonic 0.9% saline to pH = 7.2 and administered intravenously (i.v.) via a catheter into the tail vein.
Aliquots of the formulated [^64Cu]PDC-1 in isotonic 0.9% saline (4.81–5.74 MBq, 1.7–2.1 μg, 0.26–0.31 nmol, 100 μL, pH 7.2) were injected i.v. as described above. Following the conscious uptake period, the mice were anesthetized (5% isoflurane), euthanized, and dissected (n ≥ 3/model/time point [4, 24, and 48 h]; the 48 h time point also included the imaging animals sacrificed after the PET scans). Tissues were collected, washed, weighed, and radioactivity measured in a γ-counter. Calibrated, decay-corrected radioactivity was expressed as the percentage of injected dose per gram of tissue (% ID/g). Data are reported as mean ± SD. The mean weights and standard deviation of the DX3puroβ6/DX3puro paired tumor model biodistribution mice were 24.3 ± 1.4 g at 4 h, 28.2 ± 2.9 g at 24 h, and 27.7 ± 2.6 g at 48 h. The mean weights and standard deviation of the BxPC-3 tumor model biodistribution mice were 25.1 ± 1.9 g at 4 h, 27.0 ± 1.1 g at 24 h and 27.1 ± 3.2 g at 48 h. For in vivo blocking studies, DOTA-2 (50 mg/kg, 205 nmol, 1.4 mg in 100 μL 0.9% saline) was injected i.v. into two animals/tumor model 10 min prior to [^64Cu]PDC-1. The animals were sacrificed after 4 h, tissues collected, washed, weighed, and radioactivity measured in a γ-counter. The mean weights and standard deviation for the blocking mice were 24.6 ± 0 and 27.9 ± 0.3 g for the DX3puroβ6/DX3puro paired and BxPC-3 tumor models, respectively.
Biodistribution data of [64Cu]PDC-1 in paired DX3puroβ6/DX3puro tumor model.
Table S3. Biodistribution of [ 64Cu]PDC-1 in mice bearing paired DX3puroβ6/DX3puro xenograft tumors.
Tissue uptake is expressed as the mean of the percentage of injected dose per gram of tissue ± standard
deviation (n = 4/ time point; n = 9 at 48 h); an = 3, bn = 8, cn = 7.

## CC[C@H](C)[C@@H]([C@@H](CC(=O)N1CCC[C@H]1[C@H](OC)[C@@H](C)C(=O)N[C@H](C)[C@@H](O)c1ccccc1)OC)N(C)C(=O)[C@@H](NC(=O)[C@H](C(C)C)N(C)C(=O)OCc1ccc(NC(=O)[C@H](CCCNC(N)=O)NC(=O)[C@@H](NC(=O)CCOCCOCCNC(=O)CCN2C(=O)CC(SC[C@H](NC(=O)CN3CCN(CC(=O)O)CCN(CC(=O)O)CCN(CC(=O)O)CC3)C(=O)NCCOCCOCCOCCOCCOCCOCCOCCOCCOCCOCCOCCOCCOCCOCCOCCOCCOCCOCCOCCOCCOCCOCCOCCOCCOCCOCCOCCOCCC(=O)N[C@@H](CC(N)=O)C(=O)N[C@@H](C)C(=O)N[C@H](C(=O)N3CCC[C@H]3C(=O)N[C@@H](CC(N)=O)C(=O)N[C@@H](CC(C)C)C(=O)N[C@@H](CCCNC(=N)N)C(=O)NCC(=O)N[C@@H](CC(=O)O)C(=O)N[C@@H](CC(C)C)C(=O)N[C@@H](CCC(N)=O)C(=O)N[C@H](C(=O)N[C@@H](CC(C)C)C(=O)N[C@@H](C)C(=O)N[C@@H](CCC(N)=O)C(=O)N[C@@H](CCCNC(=N)N)C(=O)N[C@H](C(=O)N[C@@H](C)C(=O)N[C@@H](CCCNC(=N)N)C(=O)N[C@H](C(=O)NCCOCCOCCOCCOCCOCCOCCOCCOCCOCCOCCOCCOCCOCCOCCOCCOCCOCCOCCOCCOCCOCCOCCOCCOCCOCCOCCOCCOCCC(N)=O)[C@@H](C)O)C(C)C)C(C)C)C(C)C)C2=O)C(C)C)cc1)C(C)C (stereo partly drawn) [[^64Cu]PDC-1, metal not drawn]
[1]; 1 h
  remaining at 1 h: 89%
[1]; 4 h
  remaining at 4 h: 49%
[1]; 24 h
  remaining at 24 h: 3%
[2]; DX3puro (αvβ6 −) tumor, 4 h p.i., n = 4, read-out: DX3puro (αvβ6 −) tumor uptake
  tissue uptake at 4 h: 0.56 ± 0.12 %ID/g
[2]; DX3puro (αvβ6 −) tumor, 24 h p.i., n = 3, read-out: DX3puro (αvβ6 −) tumor uptake
  tissue uptake at 24 h: 1.03 ± 0.12 %ID/g
[2]; DX3puro (αvβ6 −) tumor, 48 h p.i., n = 8, read-out: DX3puro (αvβ6 −) tumor uptake
  tissue uptake at 48 h: 0.74 ± 0.2 %ID/g
[2]; DX3puroβ6 (αvβ6 +) tumor, 4 h p.i., n = 4, read-out: DX3puroβ6 (αvβ6 +) tumor uptake
  tissue uptake at 4 h: 4.46 ± 0.91 %ID/g
[2]; DX3puroβ6 (αvβ6 +) tumor, 24 h p.i., n = 4, read-out: DX3puroβ6 (αvβ6 +) tumor uptake
  tissue uptake at 24 h: 3.39 ± 0.56 %ID/g
[2]; DX3puroβ6 (αvβ6 +) tumor, 48 h p.i., n = 9, read-out: DX3puroβ6 (αvβ6 +) tumor uptake
  tissue uptake at 48 h: 2.53 ± 0.37 %ID/g
[2]; bladder, 4 h p.i., n = 4, read-out: Bladder uptake
  tissue uptake at 4 h: 2.12 ± 0.62 %ID/g
[2]; bladder, 24 h p.i., n = 4, read-out: Bladder uptake
  tissue uptake at 24 h: 1.65 ± 0.44 %ID/g
[2]; bladder, 48 h p.i., n = 9, read-out: Bladder uptake
  tissue uptake at 48 h: 1.66 ± 0.28 %ID/g
[2]; blood, 4 h p.i., n = 4, read-out: Blood uptake
  tissue uptake at 4 h: 0.14 ± 0.02 %ID/g
[2]; blood, 24 h p.i., n = 4, read-out: Blood uptake
  tissue uptake at 24 h: 0.29 ± 0.03 %ID/g
[2]; blood, 48 h p.i., n = 9, read-out: Blood uptake
  tissue uptake at 48 h: 0.34 ± 0.09 %ID/g
[2]; bone, 4 h p.i., n = 4, read-out: Bone uptake
  tissue uptake at 4 h: 0.43 ± 0.18 %ID/g
[2]; bone, 24 h p.i., n = 4, read-out: Bone uptake
  tissue uptake at 24 h: 0.38 ± 0.08 %ID/g
[2]; bone, 48 h p.i., n = 9, read-out: Bone uptake
  tissue uptake at 48 h: 0.33 ± 0.1 %ID/g
[2]; brain, 4 h p.i., n = 4, read-out: Brain uptake
  tissue uptake at 4 h: 0.04 ± 0.01 %ID/g
[2]; brain, 24 h p.i., n = 4, read-out: Brain uptake
  tissue uptake at 24 h: 0.07 ± 0.01 %ID/g
[2]; brain, 48 h p.i., n = 9, read-out: Brain uptake
  tissue uptake at 48 h: 0.09 ± 0.03 %ID/g
[2]; gall bladder, 4 h p.i., n = 4, read-out: Gall bladder uptake
  tissue uptake at 4 h: 3.64 ± 0.79 %ID/g
[2]; gall bladder, 24 h p.i., n = 4, read-out: Gall bladder uptake
  tissue uptake at 24 h: 3.16 ± 0.49 %ID/g
[2]; gall bladder, 48 h p.i., n = 9, read-out: Gall bladder uptake
  tissue uptake at 48 h: 1.42 ± 0.63 %ID/g
[2]; heart, 4 h p.i., n = 4, read-out: Heart uptake
  tissue uptake at 4 h: 0.82 ± 0.17 %ID/g
[2]; heart, 24 h p.i., n = 4, read-out: Heart uptake
  tissue uptake at 24 h: 0.84 ± 0.15 %ID/g
[2]; heart, 48 h p.i., n = 9, read-out: Heart uptake
  tissue uptake at 48 h: 0.85 ± 0.18 %ID/g
[2]; kidney, 4 h p.i., n = 4, read-out: Kidney uptake
  tissue uptake at 4 h: 63.9 ± 12.5 %ID/g
[2]; kidney, 24 h p.i., n = 4, read-out: Kidney uptake
  tissue uptake at 24 h: 41.2 ± 4.47 %ID/g
[2]; kidney, 48 h p.i., n = 9, read-out: Kidney uptake
  tissue uptake at 48 h: 22.9 ± 5.48 %ID/g
[2]; large intestines, 4 h p.i., n = 4, read-out: Lg. Intestines uptake
  tissue uptake at 4 h: 6.25 ± 0.74 %ID/g
[2]; large intestines, 24 h p.i., n = 4, read-out: Lg. Intestines uptake
  tissue uptake at 24 h: 3.98 ± 0.83 %ID/g
[2]; large intestines, 48 h p.i., n = 9, read-out: Lg. Intestines uptake
  tissue uptake at 48 h: 3.04 ± 0.73 %ID/g
[2]; liver, 4 h p.i., n = 4, read-out: Liver uptake
  tissue uptake at 4 h: 1.34 ± 0.29 %ID/g
[2]; liver, 24 h p.i., n = 4, read-out: Liver uptake
  tissue uptake at 24 h: 2.25 ± 0.59 %ID/g
[2]; liver, 48 h p.i., n = 9, read-out: Liver uptake
  tissue uptake at 48 h: 2.15 ± 0.62 %ID/g
[2]; lung, 4 h p.i., n = 4, read-out: Lung uptake
  tissue uptake at 4 h: 3.08 ± 0.78 %ID/g
[2]; lung, 24 h p.i., n = 4, read-out: Lung uptake
  tissue uptake at 24 h: 2.19 ± 0.42 %ID/g
[2]; lung, 48 h p.i., n = 9, read-out: Lung uptake
  tissue uptake at 48 h: 1.71 ± 0.44 %ID/g
[2]; muscle, 4 h p.i., n = 4, read-out: Muscle uptake
  tissue uptake at 4 h: 0.89 ± 0.11 %ID/g
[2]; muscle, 24 h p.i., n = 4, read-out: Muscle uptake
  tissue uptake at 24 h: 0.56 ± 0.07 %ID/g
[2]; muscle, 48 h p.i., n = 9, read-out: Muscle uptake
  tissue uptake at 48 h: 0.48 ± 0.14 %ID/g
[2]; pancreas, 4 h p.i., n = 4, read-out: Pancreas uptake
  tissue uptake at 4 h: 0.36 ± 0.07 %ID/g
[2]; pancreas, 24 h p.i., n = 4, read-out: Pancreas uptake
  tissue uptake at 24 h: 0.45 ± 0.05 %ID/g
[2]; pancreas, 48 h p.i., n = 9, read-out: Pancreas uptake
  tissue uptake at 48 h: 0.52 ± 0.25 %ID/g
[2]; skin, 4 h p.i., n = 4, read-out: Skin uptake
  tissue uptake at 4 h: 1.96 ± 0.5 %ID/g
[2]; skin, 24 h p.i., n = 4, read-out: Skin uptake
  tissue uptake at 24 h: 1.26 ± 0.36 %ID/g
[2]; skin, 48 h p.i., n = 9, read-out: Skin uptake
  tissue uptake at 48 h: 1 ± 0.34 %ID/g
[2]; small intestines, 4 h p.i., n = 4, read-out: Sm. Intestines uptake
  tissue uptake at 4 h: 4.67 ± 0.66 %ID/g
[2]; small intestines, 24 h p.i., n = 4, read-out: Sm. Intestines uptake
  tissue uptake at 24 h: 2.73 ± 0.28 %ID/g
[2]; small intestines, 48 h p.i., n = 9, read-out: Sm. Intestines uptake
  tissue uptake at 48 h: 1.53 ± 0.21 %ID/g
[2]; spleen, 4 h p.i., n = 4, read-out: Spleen uptake
  tissue uptake at 4 h: 0.21 ± 0.08 %ID/g
[2]; spleen, 24 h p.i., n = 4, read-out: Spleen uptake
  tissue uptake at 24 h: 0.58 ± 0.03 %ID/g
[2]; spleen, 48 h p.i., n = 9, read-out: Spleen uptake
  tissue uptake at 48 h: 0.54 ± 0.12 %ID/g
[2]; stomach, 4 h p.i., n = 4, read-out: Stomach uptake
  tissue uptake at 4 h: 8.97 ± 0.76 %ID/g
[2]; stomach, 24 h p.i., n = 4, read-out: Stomach uptake
  tissue uptake at 24 h: 4.86 ± 0.56 %ID/g
[2]; stomach, 48 h p.i., n = 9, read-out: Stomach uptake
  tissue uptake at 48 h: 3 ± 0.56 %ID/g
[2]; urine, 4 h p.i., n = 4
  excreta dose per gram or mL at 4 h: 13 ± 2.4 %ID/g
[2]; urine, 24 h p.i., n = 4
  excreta dose per gram or mL at 24 h: 4.57 ± 0.87 %ID/g
[2]; urine, 48 h p.i., n = 7
  excreta dose per gram or mL at 48 h: 1.6 ± 0.47 %ID/g
